Experimental findings from publication PMC7311433, “Two novel fish paralogs provide insights into the Rid family of imine deaminases active in pre-empting enamine/imine metabolic damage” (Scientific Reports, 2020) are described below.

The target in data set [1] is Salmo salar RidA-1 (Salmo salar). In words: SEC-MALS; 200 uL of 1 mg/mL protein on Superdex 75 10/300 GL in physiological saline (0.9% w/v NaCl), 0.5 mL/min, mobile phase pH 5.8; MALS and DLS detection.
For data set [2] the target is unchanged. Kind of data set: crystal structure; sitting drop at 20 °C, protein 7.5 mg/mL in 154 mM NaCl; SsRidA-1 from 0.2 M NaCl, 0.1 M sodium acetate pH 5.0, 20% PEG 6000; SsRidA-2 from 0.1 M ammonium sulfate, 0.1 M sodium acetate, 25% PEG 4000; data at 100 K.
The target is the same in data set [3]. In words: native MS; ESI mass spectra of 0.5 mg/mL protein in 10 mM ammonium formate; SsRidA-2 also after ultrafiltration on 30 kDa-cutoff membranes (retentate).
Data set [4] addresses Salmo salar RidA-2 (Salmo salar). In words: SEC-MALS; 200 uL of 1 mg/mL protein on Superdex 75 10/300 GL in physiological saline (0.9% w/v NaCl), 0.5 mL/min, mobile phase pH 5.8; MALS and DLS detection.
Data set [5] has the same target. Kind of data set: crystal structure; sitting drop at 20 °C, protein 7.5 mg/mL in 154 mM NaCl; SsRidA-1 from 0.2 M NaCl, 0.1 M sodium acetate pH 5.0, 20% PEG 6000; SsRidA-2 from 0.1 M ammonium sulfate, 0.1 M sodium acetate, 25% PEG 4000; data at 100 K.
Data set [6] shares this target. Kind of data set: native MS; ESI mass spectra of 0.5 mg/mL protein in 10 mM ammonium formate; SsRidA-2 also after ultrafiltration on 30 kDa-cutoff membranes (retentate).
Data set [7] deals with the molecule itself. Kind of data set: SEC-MALS; 200 uL of 1 mg/mL protein on Superdex 75 10/300 GL in physiological saline (0.9% w/v NaCl), 0.5 mL/min, mobile phase pH 5.8; MALS and DLS detection. For orientation: In gel filtration, larger molecules generally elute earlier.

The stoichiometry N is a count of units in the complex or per binding partner.

With Salmo salar RidA-1 (enzyme), the stoichiometry N in data set [1], in data set [2] and in data set [3] was 3 each time.

As for Salmo salar RidA-2 (enzyme), the stoichiometry N in data set [4], in data set [5] and in data set [6] was 3 in each case.

B1: goat RidA (UK114) (enzyme, goat (Capra hircus))
chain: SSLVRRIISTAKAPAAIGPYSQAVLVDRTIYISGQLGMDPASGQLVPGGVVEEAKQALTNIGEILKAAGCDFTNVVKATVLLADINDFSAVNDVYKQYFQSSFPARAAYQVAALPKGGRVEIEAIAVQGPLTTASL
notes: also called ChRidA; goat UK114
Regarding B1, the “stoichiometry N” value in data set [7] is 3.
